Source: the NTF2 design screens of Basanta et al. (2020)

Experiment: protease stability score; higher = more stable; yeast display proteolysis, trypsin and chymotrypsin;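 further: relative to predicted unfolded state with 0 unfolded-like and 1 meaning tenfold more protease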

Sequence	protease stability score
AEQHEQAREFLRNWLEAYHTGDEDLLRSMFDPNVRLHVDGRVIIGREDIIRERLHFLENHGITFHFRIQDMSVQGEKVIFDVEFHYRYNGQDYHKKVWLFVEKINGRWFMTQININ	2.19
AREEEIVEEMARLMRHLWTTGDEEKIDEMLDPDVRVEWRVNGVHLENHGRDQFIRILRRFSDEWRLRSLHDETFRIQGDKVEVDSRFDVQVNGQRDILETEFHLVVVDGRIRHVEIIIK	1.6
DDALRHADTLLDQFEHHMETGDEESMTRLADPDTRTDINGQHFHGRDWWREFMRRVDHHHIRSVDYHSVRLFNGQIHFDVEIDVEIVIGDKRYRTRYHFEVVIVKIDGRWLLHRIKTE	0.861
DDDAIKRFHEQVDNEQHNNEEEQEKNVDPNATVNVGDKTYHGREKWREVVKRENEEMRVKYQHVTFRRHPGRVIVRFRIVNDHNGKPTETDVNANYQMHNGRIRQVNRRTDG	0.225
DDDDRKNHEIAKWIWELIETGDEDILQHLADPDYRLVLDFDGVHIHRHGMTRIYHTLERVYREFGADHIHIRSITNINGVNIIDGEVQVNGKHYRLVLIFIVVNGRIKEIRVKKR	1.54
DDDEEIIERALRLWEKFEQTGDEKRLDEMIDPNVRVNYNGVIHHGRDHLRHFFSRFDHFKRLHIEDSRFFNGKIIIHTRLEGRIGDKERTVNVIIIALKVDGKWFLESWSMS	0.618
DDDEHDTEKLLTFYSHAERTGDEELLRHLFDPDVKLYIGDKLFIGWRLFKERFRRWVEELGINHIEVHLHRYRIQGDKIDMDTRLELRYDGRTEHVESHVIVRKVDGRWNFERMHFN	0.745
DDDEHEAKEAIHLWLELFMTGDEESHNRYMDPHVKTKFHFENHHEEYHGREKAIELMRMLGIKHVELRDVSTRVINGRVHIDMEIIVHFDGQEVRVIVLVIVIKINGQWILHEVVIIIK	0.933
DDDEHNAHHAVEIWIHLLRTGDEHMLERMFDPNTRIRFNGREFHGREEAHRFIEELLRTLGVDHSHITIHDMKIQGNKVHVDTRLTLIVGDKTYSRNTHLVILKVNGRWWLHSMHFN	1.41
DDDEKDLEKLIREVMEIIWTGDEDTFRHFMDPNTRLFIDGKIIVGMEEIMRRWHELLRKFGVDKIEVRLDDFKIIGNKIELHFEIMIGDKRFKTQTIFEKIDGRWILHSRFIH	2.01
DDDERALEEAIRIIKEVFKTGDERLHEELFDPNYLLIINGVFYHGREVMRNFHRHWRIRHVEFRRTRVINGRIEMDVHIITDINGQEIRHDSHIYAHKIDGRWIFRSVEHH	1.63
DDDERDMDLALELIIRTIRTGDWELQSRLIDPHARLHIDGRDLHGMEEYVTILVEHWRRIKGVKVSITLHDRDVFDGVLHLDTEVELDFNGVRLHMKTEIISLKYNGRWFIKEIRVR	0.654
DDDHKVAEKMNDTFLRLFLTGDFERLWELADPHVRILFNGVEFHGREQMSTVIEHHLRQMRVHDVTIEHITWQGDKLHVHSILRTRVGDKKVDDHIEVNILKVDGKWIVKEVKIL	2.01
DDDHLRKVEDFMRAQLEGDPDRLKQLADPNVRMNVGEKKVHGMQDIATEQASTYKTARYEIKSLDSKTEGDKVVITMRVQADNNGQPHDETFHLKARLENGKIVEQSKENDG	-0.531
DDDKKRAEELLRLWHEFFETGDEHDMNRNLDPHAKVDVNGKEIHGREFVSEWLVRKVKFFKGIKLEHKRSHFVNGRAHLHTEINFDGVEFEVIIHSDKINGRWLVHEIIIK	1.17
DDDKREMEEIARRWVESLETGDEDTLTKLADPNTKLELLIDGRENNLIGMRYWLEFLERFKNVTIKFKRMRVQGDKADIETEVNINGQRFRVRIELWVIDGRLHTLHIRIE	1.23
DDDQKEMERFVREFVHSFMTGDEENIRRLADPNARTYVNGKLRHGMDNFLHLWRQIRIDIQHVKVDDMHLVNGRIYIRVTVHGIFTFDGVHVRDEKDQHWELHVVDGRAKYISIHVH	1.62
DDDRRSLEDWIKISIESMKTGDEDEFEHLADPNPRMVVGDKHLVGRERAVHVFREWRVKHMTVKDHPIIDGRIEMDTRVTVHFNGRDIELELRIIIHKVNGKWLVEEIIIK	0.381
DDDTREFEKWEKIWVEYYQTGNFDHLRRLIDPNVRSIVDGKEFHGREAMASMILEETKRADHIEMDLTRHEIIGEKMIIHSRIEIQVGDYHDHYRLELESIKVNGKWIVHRESYR	0.039
DDEDEEVKLIIEEELHLARTGDFERLLELHDPDVRIIFDGREWHGREALRWLYRHLGIDRIDLHFEDVRVINGRVEMDVTENINGRKIKSRIIARKYDGRWINEQVDIK	2.28
DDEDEHWETLARHFVDNYLTGDWKRLWEMLDPNARLNVNGKEYHGREVIIRVLRKELEDLGVDVVDVEDIRVYGNKVDFHMTVRVGDKERRLEIDVHIVDGRIRKIIIRID	2.2
DDEDHELEWMYRIMLRILETGDEDEYKKFADPNTRLLIDFNGRIIDDHGREHVKRSIFEWLEHARIRRKEKKTERHIDGRVILHMRMDVDVNGRRIDRDVLIIIVVINGKFREVDIQYR	0.931
DDEDKRLETRARLWFEHFFTGDFEAMLWYLDPDTRLHINGREFHGMEHIVHHLEREILHLRVRIHLRRIKIFDGRLIIDIELEVHYGDKTHRTRAEIILIVVNGRIREIEVRES	1.5
DDEDREAQELLNLYLHAHRTGDEHLLDELVDPHARIIVNGQEIHGRDFLEYLKKFWGITNVNIDIHIDDLKLYDGRIEVETRLILEINGQRYTYSSHEHWHKVNGKWISKRVDFE	1.05
DDEDRHASKLYHIIVHLEVTGDFEKWRDYADPNVRIVIGDKEFHGRELFMEWLKEIRLERFRIKHIKVIGEKTNSTTSFEVNVNGVRIENDTRIHIHVIDGKVHSVHFEIR	1.57

Sequence	protease stability score
DDEDRKKADEMLKALKHGDPDRVRELMDPNAKAVYGDKRIRGRDDFVEDMFRKQREIKIDMKIEEFRVNGNHAVFTVDVIEDKDGRPKRFKARVVITLHNGKIIDIKVEEEH	1.49
DDEDRKLKHLIELLVHWFLTGDEDALKELADPNTKFDIGDKHYHGMEIVQEIWKRHLEEIRIQHVEIRHVEIQGNKTDITGELHGQIGDKHIRSEVRIHLNIINGRVRSMWFIIH	2.49
DDEEDHVREMFKLHWDNLRTGDFDKWMNLADPNVRFRYIFNGVDFEYHGRDFVSQILLEIRIDRISIHHVNIFEGHSEIDAHEETTYNGKKTERKVHIELIVFNGRIHELHVEIR	0.682
DDEEDKAREAFKMLQELVNTGNEELLYQYFDPNYRLDVDGRQIHGREAVVNERRKRFEMWGVEQVRLHIDTWDIIGNKVKLDGHLNFNGVIKKTHIHLLKVNGRWVIESERIE	1.08
DDEEEDYERAFKIFIDFVKTGDWRLLKELADPNVRNVIGDKEFMGRETFTKWVFDVRAQFDHVEIRIRDFEIQGNKLILYTELHLHQGDKSLTLELRIVILKVNGKWLMHSFRLQ	1.4
DDEEEEAKEMSEHTLQWFFTGDEEKLYKYIDPDVRVRVLIDGRELVYHGREVFLEFLKRQIEELGIDHVHLRRRHVIDGVLEVHGTINVDGREIELIIFADKYNGRWRLKLIEINVR	1.69
DDEEEEEEKFRKILEEALETGDERILHHFADPHVQTHFNGQTFHGREEWIKILRKLGVERVHLNIKRVEVYGDKIHIDGELHFDGRTHKVELVALKVDGRWLLHKIVIR	1.68
DDEEEESEHAVKFWKHAQETGDFDEMRRLADPNVKVEIGDKELHGRKDFTRLLREHKEKLGVERIEVFIHDMHPINGRVTVHVIIEYNGQRQWFHVIFLKINGRWFIESMHIT	0.378
DDEEEFIRKLFEDFYRAFLTGDWHELFELMDPNTRTEINGVHFHGRHIISEYLVTHIERVDHVSITLTRLDKIGDYLIIDSHLRQDVNGKKIHVRLHMHAHKIDGRWKIHRFEFE	1.34
DDEEEIFKKAIEDFIRWERTGDWRQLVENLDPNTRVDVNGVYIHGRERIAEWIKHHIERVKNVKHHKHDEKVQGDKLHLDGVIIIDGVRFDVHLIIVVINGQYKHHEVRIR	1.17
DDEEEILKEFVRIFREVWLTGDFHALLRLADPNVRQELHVNGREIHNHGREAMSDWHHFMRKFFKGMTIIEHTSYLIDGRIHIEGTWSFDGVDFRTHIHQVVIDGRIEHVQLTIH	0.177
DDEEEINRRIAETFINNVKTGDEHSMREMMDPNTRLIVGDKHNHGWKEVEKFWREWRRHAGVDHIHVDDVRVIGNKVEIDETINQGDKFRDVRISIITINGRITELRIEIR	1.49
DDEEEVAERAARIVHHLYLTGNPEELLKYFDPDVRWIFNGKTSIGRENVVEMFDDVHRMFGIDVRTSDINSYDIVDGRIEVDSRLHLHINGRKINHHFRIESIKINGRWWLKRIDID	0.933
DDEEHASRNAYRILKRVVETGDWREFRKMMDPDARVLINGVQLHGREAVHHLLERVDHLHDIELRHIHTQGNKIHIEISVDGLIDGQKTETERRILVTKFNGRWKVEQIEIG	0.628
DDEEHDARRAVELHNEIERTGDEHEMHRFADPDVRIFIGDKELHGRETWSKYLSHVLERLGINHLHITIEHLHLQGNKMRLHGTIRMKIGDKRYEIHVEVYITKINGRWHLHTIRND	0.363
DDEEHEARLAVHELREVQRTGDERQLHELIDPDTRFEFPGVTLHGRENMVEWLARIKNLRVESIHERHISIYNGQVDFDMEMHVRDGNKHRTEKWRIIMYKFDGRWSIKSFESR	0.961
DDEEHEARRVLEELIRVWITGNEELEDRLMDPNVRFVYGEYDLHGMEHFRHLLTVLKDQADHVSDVKLHDLEIQGDKVITRSVVDGVFNGRRFHRSQIIILIKVNGKWRIKSLHIH	1.33
DDEEHSAENFARHFMENLRTGDEDRLHELADPNMQIILHFDGQHEVRHGWESYEYLVRLFGVKHIHINHFEIFYVNGRVHLRIEGHIHQGDKYREVYIHIDINKVNGRWHVESVELRIH	0.93
DDEEKEDKDAIKLLVKFWETGDWENISRMMDPHVRLEVGEFTYHGREHFSRLYLEQYERVDHIQFRIHHLEVVGDKMTADTEVHIDINGRHIRLRTHINMIKINGRWRLHSVLIN	1.48
DDEEKEHLEMLKQFWENSYTGDERTLLHLLDPHARFILEFNGKSLQYHGREEVARFLRWLLEHIRVKDSHIHDIDVIGEKAVVDGRMHGEIDGREVEKETRLFIVVIDGRITKVFIEVR	1.6
DDEEKETEDFLRLLIEFLLTGDEERLKDLLDPNTRLEYGEFDFVGREHVLEWRHHYRKILGAKHRELRIEHLHVIDGRVNAISRVHLRFDGREYSHETIIIIEKVNGKWLLHSEEIR	1.33
DDEEKEVKILTEIWWKSVRTGDEEFWDRLADPHTRLEILINGRTHEFHGMDEYNRILHHLRIEDRRTRSINNIDGKAQIDGFLVFRINGRSFETKVEVNISVVNGKVKHHKIIIE	1.3
DDEEKHAHDILRLLFWVLMTGDEEIIRELFDPNVRVHIGDKEIHGWKELSRHTKEMRHHVRDTDEKDRRSDEDEIRLHGELDGELHFDGKRVKHRMDIHIIAVKIDGRWFFKSLYVR	0.868
DDEEKLSKDASELWKKSMLTGDEDTLMKLADPHTRLEIRIGDKTDEIHGMEWVAHLLTNLGIDHFILRDEHIQGEKVIIRGEIDINGRTHESIIIVIIINGRLKSVTFIKL	0.94
DDEEKMFVHLAKLFTDIMTTGDEKFLDELVDPNVRFDVNGRLRVGREELKKAIQDWWREIRVDEILIHEIDVIDGRLRMDGRMRGDIDGQETYLELHIILHVIDGRMTHVEIRHQ	2.38
